Test results taken from US20230056404A1 (priority 2019, published 2023).

How the values were obtained:
[1] = system: HEK293 cells; assay type: cell-based, human
[2] = system: Sf9 cells; assay: DRD1-GFP expression, localization and toxicity in Sf9 cells; conditions: Sf9, 72 h
Procedure: DRD1-GFP fusions were expressed in Sf9 cells. Sf9 cells were seeded at 0.4×10^6 cells/well in a 6 well plate and incubated for 15 min at RT before transiently transfecting with either EG10 or EG8 using Cellfectin Reagent II (Thermofisher) according to manufactures instruction. DRD1-GFP expression was monitored after 72 h using fluorescence microscopy. Images were taken and analyzed by an Echo Revolve microscopy system.

[3] = molecular target: T1, DRD1 (Homo sapiens, UniProt P21728); assay: DRD1-Strep functional activity, cAMP-Glo assay; assay type: cell-based; conditions: HEK293 expressing DRD1-Strep
T1 construct: expressed in transfected cells; host or cells: HEK293
Procedure: In addition to the illustration of a correctly translocated GPCR such as DRD1, activity tests were performed using a DRD1-Strep fusion. The smaller strep-tag ensures that the interaction with the cytosolic located G-protein is intact, and a functional assay can be performed. Upon binding of dopamine, DRD1 releases the heterotrimeric G-protein to its Gα subunit and its Gβγ complex. In the resting state, Ga binds GDP but upon activation exchanges GTP for GDP. The Gα-GTP complex interacts with adenylate cyclase (AC), resulting in activation of AC activity and consequently, increasing cAMP levels. Changes in intracellular cAMP levels can be measured by standard cAMP assays. The academic and industry standard (EG5) was compared to the same target protein in co-expression with the L-protein of ECMV.
DRD1-Strep fusions were expressed in HEK293 cells. […] Protein was expressed for 48 h and DRD1 activity was analyzed using the cAMP-Glo™ assay (Promega) according to manufacturer's instructions. After 48 h, cells were washed with sterile PBS pH 7.2 and cells were incubated for 2 h with 20 μl of a 1 mM dopamine substrate solution (+dopamine; ON) or PBS pH 7.2 (−dopamine; OFF) at 37° C. […] Luminescence was measured using a plate reader (BioTek Synergy™ LX) and data were analyzed using standard analysis programs.

[4] = system: CHO-K1 cells; assay: DRD1-GFP expression and membrane localization in CHO-K1 cells; conditions: CHO-K1, 48 h
Procedure: DRD1-GFP fusions proteins were expressed in CHO-K1 cells. CHO-K1 cells were seeded at 0.05×10^6 cells/well in a 24 well plate and incubated at 37° C. and 5% CO2 overnight before transiently transfecting with either EG10 or EG19 using Lipofectamine 3000 (Thermofisher) according to manufactures instructions. DRD1-GFP expression was monitored after 48 h using fluorescence microscopy. Images were taken and analyzed by an Echo Revolve microscopy system.

[5] = Active C1-Inhibitor, MicroVue C1-Inhibitor Plus EIA; assay type: biochemical; conditions: presence vs absence of the enhancer protein, protein concentration normalized
Procedure: (§1) C1-Inh-Myc-Flag fusions were expressed in HEK293 cells. HEK293 cells were seeded at 1.75×10^6/ml cells in 100 ml shaking flask and incubated at 37° C., 5% CO2 and 120 rpm overnight before transiently transfecting with a vector encoding C1-Inh (OriGene; CAT #: RC203767) either alone, or in combination with EG11 by transfection of suspension cells using methods known in the art and/or disclosed herein. Supernatant containing the expressed recombinant C1-Inh protein was harvested after 72 h and supernatant was cleared by centrifugation followed by filtration ([…], nitrocellulose). To purify C1-Inh, Anti-Flag resin (ANTI-FLAG M2 Affinity Gel, Millipore Sigma) was equilibrated with 20 mM Tris pH 7.5, 50 mM NaCl prior to adding to the supernatant. Supernatant was incubated with the resin for 2 h at 4° C. with shaking. Resin was settled and washed with 5 CV 20 mM Tris pH 7.5, 50 mM NaCl and protein was eluted with 4 CV 20 mM Tris pH 7.5, 50 mM NaCl, 0.2 mg/ml 3× Flag Peptide. Purification was analyzed by SDS-PAGE (SurePAGE, Bis-Tris, GenScript) and protein containing fractions were pooled. Protein concentration was analyzed by BCA Assay (ThermoFisher) according to manufactures instructions and normalized C1-Inh was tested for activity using Immunoassay (MicroVue C1-Inhibitor Plus EIA, Quidel) following manufactures instructions.

[6] = system: HEK293 cells; assay: C1-Inhibitor secretion and purification, total amount produced; assay type: cell-based, human; conditions: presence vs absence of the enhancer protein (L protein from EMCV, EG11), HEK293, 72 h
Procedure: as §1

T1 sequence (P21728 with tags, fused parts or gaps): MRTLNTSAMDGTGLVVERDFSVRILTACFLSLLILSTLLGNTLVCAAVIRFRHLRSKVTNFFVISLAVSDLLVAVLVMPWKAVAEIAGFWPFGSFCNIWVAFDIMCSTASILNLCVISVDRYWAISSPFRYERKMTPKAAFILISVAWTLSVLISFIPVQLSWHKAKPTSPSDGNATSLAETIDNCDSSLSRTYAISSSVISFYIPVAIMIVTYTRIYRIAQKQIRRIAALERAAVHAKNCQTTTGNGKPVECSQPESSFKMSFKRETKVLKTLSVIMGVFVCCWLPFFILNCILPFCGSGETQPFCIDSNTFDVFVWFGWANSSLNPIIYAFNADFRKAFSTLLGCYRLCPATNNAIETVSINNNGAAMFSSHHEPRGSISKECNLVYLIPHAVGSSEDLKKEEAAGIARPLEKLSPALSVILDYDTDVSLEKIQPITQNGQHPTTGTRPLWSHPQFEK

Molecule | DRD1-GFP membrane association, enhancer on a separate vector [1] | DRD1-GFP translocation into the outer membrane / inclusion bodies [1] | DRD1-GFP translocation and localization [2] | activating signal, difference between OFF (-dopamine) and ON (+dopamine) luminescence ([3]; 1 mM dopamine 2 h) | leaky activation, OFF signal compared to non-transfected cells ([3]; absence of dopamine) | DRD1-GFP translocation and localization [4] | increase of amount of active C1-Inhibitor [5] [%] | increase of total amount of produced C1-Inhibitor [6] [%]
Leader protein of ECMV: Leader protein of Encephalomyocarditis virus (EMCV), SEQ ID NO: 2, enhancer protein | ensures correct membrane association | sufficient to ensure a correct membrane incorporation of DRD1-GFP | improved expression and localization of the membrane protein | strong activating signal | greatly reduced |  |  | 
Leader protein of Theiler's virus: Leader protein of Theiler's virus, SEQ ID NO: 1, enhancer protein (protein, Cardiovirus Theiler's-like cardiovirus) MACKHGYPLMCPLCTALDKTSDGLFTLLFDNEWYPTDLLTVDLEDEVFYPDDPHMEWTDLPLIQDIEMEPQ |  | sufficient to ensure a correct membrane incorporation of DRD1-GFP |  |  |  | improved expression and localization of the membrane protein |  | 
C1-Inhibitor: secreted protease inhibitor of the serpin superfamily, expressed as C1-Inh-myc-flag fusion (protein, UniProt P05155 23-500, looked up, myc-flag tag) Plasma protease C1 inhibitor: NPNATSSSSQDPESLQDRGEGKVATTVISKMLFVEPILEVSSLPTTNSTTNSATKITANTTDEPTTQPTTEPTTQPTIQPTQPTTQLPTDSPTQPTTGSFCPGPVTLCSDLESHSTEAVLGDALVDFSLKLYHAFSAMKKVETNMAFSPFSIASLLTQVLLGAGENTKTNLESILSYPKDFTCVHQALKGFTTKGVTSVSQIFHSPDLAIRDTFVNASRTLYSSSPRVLSNNSDANLELINTWVAKNTNNKISRLLDSLPSDTRLVLLNAIYLSAKWKTTFDPKKTRMEPFHFKNSVIKVPMMNSKKYPVAHFIDQTLKAKVGQLQLSHNLSLVILVPQNLKHRLEDMEQALSPSVFKAIMEKLEMSKFQPTLLTLPRIKVTTSQDMLSIMEKLEFFDFSYDLNLCGLTEDPDLQVSAMQHQTVLELTETGVEAAAASAISVARTLLVFEVQQPFLFVLWDQQHKFPVFMGRVYDPRA |  |  |  |  |  |  | > 10 | > 30
